Experimental data taken from patent publication US20120324602A1.
Each block holds one binder with its values, some of them ahead of it.

Columns and labels:
Assay in all cases: TAP-MS, C-terminal GS tag
[1] = biological target: DNA-binding bromodomain-containing protein (AT1G20670) (Arabidopsis thaliana)
[2] = biological target: DNA-binding bromodomain-containing protein, similar to At1g20670 (AT1G76380) (Arabidopsis thaliana)
[3] = biological target: DNA-binding bromodomain-containing protein, similar to At1g20670 (AT5G55040) (Arabidopsis thaliana)
[4] = biological target: RD21 (RESPONSIVE TO …ON 21) (Arabidopsis thaliana)
[5] = biological target: T1, SE (SERRATE) (Arabidopsis thaliana)
T1 sequence (Q9ZVD0 1-720, looked up): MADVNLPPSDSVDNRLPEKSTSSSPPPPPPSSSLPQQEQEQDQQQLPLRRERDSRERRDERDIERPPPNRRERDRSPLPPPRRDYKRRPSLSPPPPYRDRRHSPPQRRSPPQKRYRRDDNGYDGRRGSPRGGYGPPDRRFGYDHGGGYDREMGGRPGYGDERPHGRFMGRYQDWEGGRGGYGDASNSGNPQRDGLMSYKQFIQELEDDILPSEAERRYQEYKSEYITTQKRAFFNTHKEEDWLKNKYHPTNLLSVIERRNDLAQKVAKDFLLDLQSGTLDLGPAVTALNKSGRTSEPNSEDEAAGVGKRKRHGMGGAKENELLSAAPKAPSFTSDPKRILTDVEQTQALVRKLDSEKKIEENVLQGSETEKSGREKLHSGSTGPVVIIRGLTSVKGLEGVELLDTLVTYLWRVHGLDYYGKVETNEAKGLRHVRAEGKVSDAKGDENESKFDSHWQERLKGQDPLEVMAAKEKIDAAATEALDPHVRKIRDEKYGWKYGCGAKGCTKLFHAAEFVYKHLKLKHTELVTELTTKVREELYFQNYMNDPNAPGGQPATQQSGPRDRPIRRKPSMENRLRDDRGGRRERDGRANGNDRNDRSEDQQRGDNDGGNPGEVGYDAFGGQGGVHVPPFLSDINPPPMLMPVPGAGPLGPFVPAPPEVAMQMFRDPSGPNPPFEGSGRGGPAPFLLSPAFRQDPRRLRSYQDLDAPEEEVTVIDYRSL

[6] = biological target: SNF2 protein (BRM) (Arabidopsis thaliana)
[7] = biological target: SWIB complex BAF60b domain-containing protein (Swp73B) (Arabidopsis thaliana)
[8] = biological target: T2, SWIRM domain-containing protein (SWI3C) (Arabidopsis thaliana)
T2 sequence (Q9XI07 1-807, looked up): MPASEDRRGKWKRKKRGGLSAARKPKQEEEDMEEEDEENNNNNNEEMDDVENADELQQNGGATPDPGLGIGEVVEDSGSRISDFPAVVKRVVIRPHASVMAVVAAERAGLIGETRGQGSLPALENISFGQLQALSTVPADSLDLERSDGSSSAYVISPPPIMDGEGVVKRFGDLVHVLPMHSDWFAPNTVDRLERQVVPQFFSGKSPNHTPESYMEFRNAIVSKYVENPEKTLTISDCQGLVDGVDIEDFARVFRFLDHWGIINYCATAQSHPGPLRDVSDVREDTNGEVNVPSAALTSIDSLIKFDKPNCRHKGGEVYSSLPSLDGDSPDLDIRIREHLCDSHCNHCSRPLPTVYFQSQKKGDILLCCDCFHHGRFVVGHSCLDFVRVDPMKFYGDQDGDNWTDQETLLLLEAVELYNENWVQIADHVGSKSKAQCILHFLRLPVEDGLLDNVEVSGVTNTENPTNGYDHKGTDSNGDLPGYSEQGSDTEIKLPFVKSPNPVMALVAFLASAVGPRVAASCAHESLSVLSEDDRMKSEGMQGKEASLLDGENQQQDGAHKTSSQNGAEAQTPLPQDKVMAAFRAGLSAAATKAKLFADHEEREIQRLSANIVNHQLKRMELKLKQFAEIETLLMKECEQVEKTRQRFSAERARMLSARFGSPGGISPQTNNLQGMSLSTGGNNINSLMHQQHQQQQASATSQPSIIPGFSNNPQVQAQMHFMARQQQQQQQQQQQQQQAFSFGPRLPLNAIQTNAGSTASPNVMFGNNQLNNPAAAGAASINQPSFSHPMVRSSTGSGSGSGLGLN

[9] = biological target: Swp73A (Arabidopsis thaliana)
[10] = biological target: T3, actin-related protein 7 (ARP7) (Arabidopsis thaliana)
T3 sequence (Q8L4Y5 1-363, looked up): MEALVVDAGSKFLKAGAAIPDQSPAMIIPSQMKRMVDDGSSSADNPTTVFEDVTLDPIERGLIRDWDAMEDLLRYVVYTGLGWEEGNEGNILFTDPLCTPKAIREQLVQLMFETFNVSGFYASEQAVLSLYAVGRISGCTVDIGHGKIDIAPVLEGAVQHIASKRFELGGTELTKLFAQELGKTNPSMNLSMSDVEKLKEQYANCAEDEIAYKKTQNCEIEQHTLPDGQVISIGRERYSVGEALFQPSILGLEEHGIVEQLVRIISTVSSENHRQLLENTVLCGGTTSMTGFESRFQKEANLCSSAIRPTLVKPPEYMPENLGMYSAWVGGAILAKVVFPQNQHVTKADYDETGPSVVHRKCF

[11] = biological target: expressed protein, similar to At3g03460 (AT5G17510) (Arabidopsis thaliana)
[12] = biological target: expressed protein, similar to At4g22320 (AT5G55210) (Arabidopsis thaliana)
[13] = biological target: unknown protein, similar to At5g17510 (AT3G03460) (Arabidopsis thaliana)
[14] = biological target: 26S proteasome regulatory subunit (RPN9) (Arabidopsis thaliana)
[15] = biological target: G2484-1, agenet domain-containing protein (Arabidopsis thaliana)
[16] = biological target: T4, actin-related protein 4 (ARP4) (Arabidopsis thaliana)
T4 sequence (Q84M92 1-441, looked up): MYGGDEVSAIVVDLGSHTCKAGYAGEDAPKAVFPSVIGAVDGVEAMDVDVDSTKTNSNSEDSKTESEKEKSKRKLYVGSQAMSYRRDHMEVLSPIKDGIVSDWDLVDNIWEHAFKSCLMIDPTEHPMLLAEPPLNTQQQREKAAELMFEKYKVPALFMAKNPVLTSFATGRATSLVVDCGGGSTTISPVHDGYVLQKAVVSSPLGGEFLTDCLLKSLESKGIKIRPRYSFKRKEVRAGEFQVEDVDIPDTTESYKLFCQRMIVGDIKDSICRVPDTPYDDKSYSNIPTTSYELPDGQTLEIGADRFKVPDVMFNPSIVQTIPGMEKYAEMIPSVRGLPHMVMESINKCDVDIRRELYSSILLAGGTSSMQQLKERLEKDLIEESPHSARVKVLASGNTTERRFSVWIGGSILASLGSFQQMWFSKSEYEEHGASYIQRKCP

[17] = biological target: chromatin remodeling protein (SYD) (Arabidopsis thaliana)
[18] = biological target: expressed protein (AT5G13030) (Arabidopsis thaliana)
[19] = biological target: expressed protein, similar to DAG protein (AT3G15000) (Arabidopsis thaliana)
[20] = biological target: homeobox-leucine zipper protein (HB-2)/HD-ZIP protein (Arabidopsis thaliana)
[21] = biological target: importin alpha-1 subunit (IMPA1) (Arabidopsis thaliana)
[22] = biological target: importin alpha-1 subunit (IMPA4) (Arabidopsis thaliana)
[23] = biological target: importin alpha-2 (IMPA2) (Arabidopsis thaliana)
[24] = biological target: importin beta-2 (Arabidopsis thaliana)
[25] = biological target: T5, phytochrome A supressor spa1 (SPA1) (Arabidopsis thaliana)
T5 sequence (Q9SYX2 1-1029, looked up): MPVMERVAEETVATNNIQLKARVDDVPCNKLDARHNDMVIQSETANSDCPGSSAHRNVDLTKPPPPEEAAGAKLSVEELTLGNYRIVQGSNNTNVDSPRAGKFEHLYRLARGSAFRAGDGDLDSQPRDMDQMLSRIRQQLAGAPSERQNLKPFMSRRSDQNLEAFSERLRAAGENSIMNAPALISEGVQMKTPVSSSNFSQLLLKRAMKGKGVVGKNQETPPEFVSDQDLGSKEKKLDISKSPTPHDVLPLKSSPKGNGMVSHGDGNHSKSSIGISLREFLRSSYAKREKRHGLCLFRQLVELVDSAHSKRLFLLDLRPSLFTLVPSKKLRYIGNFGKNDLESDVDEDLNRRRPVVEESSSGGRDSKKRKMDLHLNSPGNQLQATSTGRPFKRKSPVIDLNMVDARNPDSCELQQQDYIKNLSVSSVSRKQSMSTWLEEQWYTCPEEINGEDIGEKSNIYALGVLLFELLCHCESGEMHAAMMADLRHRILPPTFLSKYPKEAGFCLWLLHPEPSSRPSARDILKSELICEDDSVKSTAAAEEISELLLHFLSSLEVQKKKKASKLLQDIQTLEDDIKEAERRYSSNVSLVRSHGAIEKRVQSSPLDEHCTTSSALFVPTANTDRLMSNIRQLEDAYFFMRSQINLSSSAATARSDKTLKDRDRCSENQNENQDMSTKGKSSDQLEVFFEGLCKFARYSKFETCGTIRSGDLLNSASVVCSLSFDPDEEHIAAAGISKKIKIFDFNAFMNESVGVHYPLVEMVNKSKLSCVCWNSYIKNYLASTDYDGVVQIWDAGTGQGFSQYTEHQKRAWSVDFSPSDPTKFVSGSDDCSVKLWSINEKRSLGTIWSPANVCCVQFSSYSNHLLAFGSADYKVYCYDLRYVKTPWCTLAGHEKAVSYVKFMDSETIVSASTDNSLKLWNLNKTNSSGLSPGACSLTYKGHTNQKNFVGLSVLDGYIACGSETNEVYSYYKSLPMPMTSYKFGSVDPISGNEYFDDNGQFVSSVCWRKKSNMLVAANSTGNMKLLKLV

[26] = biological target: splicing factor (AT3G55220) (Arabidopsis thaliana)

C-GS (times co-purified) [1]: 2
C-GS (times co-purified) [2]: 2
C-GS (times co-purified) [3]: 1
C-GS (times co-purified) [4]: 2
C-GS (times co-purified) [5]: 1
C-GS (times co-purified) [6]: 2
C-GS (times co-purified) [7]: 2
C-GS (times co-purified) [8]: 2
C-GS (times co-purified) [9]: 2
C-GS (times co-purified) [10]: 2
C-GS (times co-purified) [11]: 2
C-GS (times co-purified) [12]: 1
C-GS (times co-purified) [13]: 1
B1: ARP4-GS (protein, UniProt Q84M92 1-441, looked up)
Actin-related protein 4: T4 sequence (Q84M92 1-441, looked up)
modifications: C-terminal GS tag

C-GS (times co-purified) [14]: 1
C-GS (times co-purified) [1]: 1
C-GS (times co-purified) [15]: 4
C-GS (times co-purified) [6]: 4
C-GS (times co-purified) [7]: 4
C-GS (times co-purified) [8]: 4
C-GS (times co-purified) [16]: 4
C-GS (times co-purified) [10]: 4
C-GS (times co-purified) [17]: 4
C-GS (times co-purified) [18]: 1
C-GS (times co-purified) [11]: 3
C-GS (times co-purified) [12]: 4
C-GS (times co-purified) [19]: 3
C-GS (times co-purified) [20]: 1
C-GS (times co-purified) [21]: 4
C-GS (times co-purified) [22]: 1
C-GS (times co-purified) [23]: 4
C-GS (times co-purified) [24]: 4
C-GS (times co-purified) [25]: 1
C-GS (times co-purified) [26]: 1
B2: AN3-GS (protein, UniProt Q8L8A5 1-210, looked up)
GRF1-interacting factor 1: MQQHLMQMQPMMAGYYPSNVTSDHIQQYLDENKSLILKIVESQNSGKLSECAENQARLQRNLMYLAAIADSQPQPPSVHSQYGSAGGGMIQGEGGSHYLQQQQATQQQQMTQQSLMAARSSMLYAQQQQQQQPYATLQHQQLHHSQLGMSSSSGGGGSSGLHILQGEAGGFHDFGRGKPEMGSGGGGEGRGGSSGDGGETLYLKSSDDGN
modifications: C-terminal GS tag
